Experiment [1] deals with SDC1_(47HS): murine syndecan-1 ectodomain with heparan sulfate conjugated at residue 47 (mouse) (UniProt P18828). In words: ELISA.
Experiment [2] has as its target SDC1_(37HEP): murine syndecan-1 ectodomain with heparin conjugated at residue 37 (mouse) (UniProt P18828). In words: ELISA. A general note: In an ELISA, binding on a coated surface is turned into a signal by an enzyme label.
Experiment [3] deals with SDC1_(37): deglycosylated murine syndecan-1 ectodomain with p-propargyltyrosine at residue 37 (mouse) (UniProt P18828). In words: ELISA.
For experiment [4], the target named is SDC1_(47HEP): murine syndecan-1 ectodomain with heparin conjugated at residue 47 (mouse) (UniProt P18828). In words: ELISA.
In a further experiment the target is FGFR1, biotinylated (UniProt P11362). In words: AlphaScreen or HTRF. (In general: In Alpha technology, singlet oxygen from a donor bead excites a nearby acceptor bead.)
Experiment [5] addresses Vitronectin (VN), biotinylated (UniProt P04004). In words: AlphaScreen or HTRF.
For experiment [6], the target named is Recombinant human FGF2 (fibroblast growth factor-2), biotinylated (human). In words: AlphaScreen or HTRF.

By EC50 is commonly meant the concentration at which the effect is half-maximal. In the case of “Recombinant human αvβ3 integrin (from UniProt P06756-1 31-992; P05106 27-718) (complex)”, the half-maximal effective concentration (EC50) in experiment [1] was 40 nM; in experiment [2] it was 10 nM; in experiment [3], 100 nM; in experiment [4], 5 nM.

For the substance “SDC1_(37): deglycosylated murine syndecan-1 ectodomain with p-propargyltyrosine at residue 37 (from UniProt P18828 23-255) (domain or fragment)”, the concentration giving a half-maximal response (EC50) was > 20 nM with FGFR1, biotinylated; > 100 nM in experiment [5]; > 100 nM in experiment [6]. Besides, the EC50 of ternary complex formation with soluble non-tagged FGF2 in the experiment with FGFR1, biotinylated was > 20 nM.

Consider “SDC1_(37HEP): murine syndecan-1 ectodomain with heparin conjugated at residue 37 (from UniProt P18828 23-255) (domain or fragment)”, for which the concentration for a half-maximal effect (EC50) came out at 0.3 nM in the experiment with FGFR1, biotinylated; 1 nM in experiment [5]; 0.4 nM in experiment [6]. In the experiment with FGFR1, biotinylated, this substance came in with an EC50 of ternary complex formation with soluble non-tagged FGF2 of 0.007 nM.

Regarding “SDC1_(47HEP): murine syndecan-1 ectodomain with heparin conjugated at residue 47 (from UniProt P18828 23-255) (domain or fragment)”, in the experiment with FGFR1, biotinylated, the EC50 came to 0.2 nM and the EC50 of ternary complex formation with soluble non-tagged FGF2 worked out at 0.007 nM. For the same substance, the EC50 in experiment [6] amounted to 0.3 nM.
